Measurements as given in patent publication US20190338009A1 (ZEALAND PHARMA A S, published 2019).
Square brackets hold non-standard residues; d marks the D form. Aib = CC(C)(N)C(=O)O

T1: human GLP-2 receptor (hGLP2-R) (human, UniProt O95838 1-553)
T1 sequence (looked up): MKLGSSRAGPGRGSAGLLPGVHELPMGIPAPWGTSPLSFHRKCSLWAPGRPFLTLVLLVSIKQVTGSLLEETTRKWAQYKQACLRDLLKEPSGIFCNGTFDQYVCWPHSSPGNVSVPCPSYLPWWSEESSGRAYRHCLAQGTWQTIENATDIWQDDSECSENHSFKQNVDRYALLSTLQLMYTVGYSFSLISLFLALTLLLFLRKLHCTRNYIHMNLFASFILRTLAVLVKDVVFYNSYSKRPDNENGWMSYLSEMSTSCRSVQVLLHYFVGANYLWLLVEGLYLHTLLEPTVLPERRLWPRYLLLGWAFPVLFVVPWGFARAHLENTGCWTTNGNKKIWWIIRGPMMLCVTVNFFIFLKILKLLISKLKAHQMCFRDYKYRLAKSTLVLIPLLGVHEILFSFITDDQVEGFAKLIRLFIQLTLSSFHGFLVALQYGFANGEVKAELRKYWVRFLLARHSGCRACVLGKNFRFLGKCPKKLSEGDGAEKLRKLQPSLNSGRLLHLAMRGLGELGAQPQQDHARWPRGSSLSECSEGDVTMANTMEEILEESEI


How the values were obtained:
[1] = target: human glucagon-like peptide 1 receptor (GLP-1R) (human, UniProt P43220 24-463); assay: cell-based or functional assay
[2] = target: T1, human GLP-2 receptor (hGLP2-R); assay: cell-based or functional assay

| EC50 GLP-1 (nM); cAMP AlphaScreen, HEK293 cells expressing human GLP-1R [1] [nM] | EC50 GLP-2 (nM); cAMP AlphaScreen, HEK293 cells expressing human GLP-2R [2] [nM] | Binder |
| --- | --- | --- |
| 0.004 | 0.041 | H-H[Aib]EGTFTSELATILDEQAARDFINWLIAHKITD-OH (SMILES CC[C@H](C)[C@H](NC(=O)[C@H](CC(C)C)NC(=O)[C@H](Cc1c[nH]c2ccccc12)NC(=O)[C@H](CC(N)=O)NC(=O)[C@@H](NC(=O)[C@H](Cc1ccccc1)NC(=O)[C@H](CC(=O)O)NC(=O)[C@H](CCCNC(=N)N)NC(=O)[C@H](C)NC(=O)[C@H](C)NC(=O)[C@H](CCC(N)=O)NC(=O)[C@H](CCC(=O)O)NC(=O)[C@H](CC(=O)O)NC(=O)[C@H](CC(C)C)NC(=O)[C@@H](NC(=O)[C@@H](NC(=O)[C@H](C)NC(=O)[C@H](CC(C)C)NC(=O)[C@H](CCC(=O)O)NC(=O)[C@H](CO)NC(=O)[C@@H](NC(=O)[C@H](Cc1ccccc1)NC(=O)[C@@H](NC(=O)CNC(=O)[C@H](CCC(=O)O)NC(=O)C(C)(C)NC(=O)[C@@H](N)Cc1c[nH]cn1)[C@@H](C)O)[C@@H](C)O)[C@@H](C)O)[C@@H](C)CC)[C@@H](C)CC)C(=O)N[C@@H](C)C(=O)N[C@@H](Cc1c[nH]cn1)C(=O)N[C@@H](CCCCN)C(=O)N[C@H](C(=O)N[C@H](C(=O)N[C@@H](CC(=O)O)C(=O)O)[C@@H](C)O)[C@@H](C)CC) [Compound 33] |
| 0.044 | 0.11 | H-H[Aib]EGTFTDELATILDEQAARDFIAWLQAQKITD-OH (SMILES CC[C@H](C)[C@H](NC(=O)[C@H](Cc1ccccc1)NC(=O)[C@H](CC(=O)O)NC(=O)[C@H](CCCNC(=N)N)NC(=O)[C@H](C)NC(=O)[C@H](C)NC(=O)[C@H](CCC(N)=O)NC(=O)[C@H](CCC(=O)O)NC(=O)[C@H](CC(=O)O)NC(=O)[C@H](CC(C)C)NC(=O)[C@@H](NC(=O)[C@@H](NC(=O)[C@H](C)NC(=O)[C@H](CC(C)C)NC(=O)[C@H](CCC(=O)O)NC(=O)[C@H](CC(=O)O)NC(=O)[C@@H](NC(=O)[C@H](Cc1ccccc1)NC(=O)[C@@H](NC(=O)CNC(=O)[C@H](CCC(=O)O)NC(=O)C(C)(C)NC(=O)[C@@H](N)Cc1c[nH]cn1)[C@@H](C)O)[C@@H](C)O)[C@@H](C)O)[C@@H](C)CC)C(=O)N[C@@H](C)C(=O)N[C@@H](Cc1c[nH]c2ccccc12)C(=O)N[C@@H](CC(C)C)C(=O)N[C@@H](CCC(N)=O)C(=O)N[C@@H](C)C(=O)N[C@@H](CCC(N)=O)C(=O)N[C@@H](CCCCN)C(=O)N[C@H](C(=O)N[C@H](C(=O)N[C@@H](CC(=O)O)C(=O)O)[C@@H](C)O)[C@@H](C)CC) [Compound 29] |
| 0.005 | 0.049 | H-H[Aib]EGTFTSELATILDEQAARDFISWLIAHKITD-OH (SMILES CC[C@H](C)[C@H](NC(=O)[C@H](CC(C)C)NC(=O)[C@H](Cc1c[nH]c2ccccc12)NC(=O)[C@H](CO)NC(=O)[C@@H](NC(=O)[C@H](Cc1ccccc1)NC(=O)[C@H](CC(=O)O)NC(=O)[C@H](CCCNC(=N)N)NC(=O)[C@H](C)NC(=O)[C@H](C)NC(=O)[C@H](CCC(N)=O)NC(=O)[C@H](CCC(=O)O)NC(=O)[C@H](CC(=O)O)NC(=O)[C@H](CC(C)C)NC(=O)[C@@H](NC(=O)[C@@H](NC(=O)[C@H](C)NC(=O)[C@H](CC(C)C)NC(=O)[C@H](CCC(=O)O)NC(=O)[C@H](CO)NC(=O)[C@@H](NC(=O)[C@H](Cc1ccccc1)NC(=O)[C@@H](NC(=O)CNC(=O)[C@H](CCC(=O)O)NC(=O)C(C)(C)NC(=O)[C@@H](N)Cc1c[nH]cn1)[C@@H](C)O)[C@@H](C)O)[C@@H](C)O)[C@@H](C)CC)[C@@H](C)CC)C(=O)N[C@@H](C)C(=O)N[C@@H](Cc1c[nH]cn1)C(=O)N[C@@H](CCCCN)C(=O)N[C@H](C(=O)N[C@H](C(=O)N[C@@H](CC(=O)O)C(=O)O)[C@@H](C)O)[C@@H](C)CC) [Compound 34] |
| 0.046 | 0.034 | H-H[Aib]EGTFSSELATILDEQAARDFIAWLIAHKITD-OH (SMILES CC[C@H](C)[C@H](NC(=O)[C@H](CC(C)C)NC(=O)[C@H](Cc1c[nH]c2ccccc12)NC(=O)[C@H](C)NC(=O)[C@@H](NC(=O)[C@H](Cc1ccccc1)NC(=O)[C@H](CC(=O)O)NC(=O)[C@H](CCCNC(=N)N)NC(=O)[C@H](C)NC(=O)[C@H](C)NC(=O)[C@H](CCC(N)=O)NC(=O)[C@H](CCC(=O)O)NC(=O)[C@H](CC(=O)O)NC(=O)[C@H](CC(C)C)NC(=O)[C@@H](NC(=O)[C@@H](NC(=O)[C@H](C)NC(=O)[C@H](CC(C)C)NC(=O)[C@H](CCC(=O)O)NC(=O)[C@H](CO)NC(=O)[C@H](CO)NC(=O)[C@H](Cc1ccccc1)NC(=O)[C@@H](NC(=O)CNC(=O)[C@H](CCC(=O)O)NC(=O)C(C)(C)NC(=O)[C@@H](N)Cc1c[nH]cn1)[C@@H](C)O)[C@@H](C)O)[C@@H](C)CC)[C@@H](C)CC)C(=O)N[C@@H](C)C(=O)N[C@@H](Cc1c[nH]cn1)C(=O)N[C@@H](CCCCN)C(=O)N[C@H](C(=O)N[C@H](C(=O)N[C@@H](CC(=O)O)C(=O)O)[C@@H](C)O)[C@@H](C)CC) [Compound 2] |
| 0.02 | 0.078 | H-H[Aib]EGSFTSELATILDGKAARDFIAWLIAHKITD-OH (SMILES CC[C@H](C)[C@H](NC(=O)[C@H](CC(C)C)NC(=O)[C@H](Cc1c[nH]c2ccccc12)NC(=O)[C@H](C)NC(=O)[C@@H](NC(=O)[C@H](Cc1ccccc1)NC(=O)[C@H](CC(=O)O)NC(=O)[C@H](CCCNC(=N)N)NC(=O)[C@H](C)NC(=O)[C@H](C)NC(=O)[C@H](CCCCN)NC(=O)CNC(=O)[C@H](CC(=O)O)NC(=O)[C@H](CC(C)C)NC(=O)[C@@H](NC(=O)[C@@H](NC(=O)[C@H](C)NC(=O)[C@H](CC(C)C)NC(=O)[C@H](CCC(=O)O)NC(=O)[C@H](CO)NC(=O)[C@@H](NC(=O)[C@H](Cc1ccccc1)NC(=O)[C@H](CO)NC(=O)CNC(=O)[C@H](CCC(=O)O)NC(=O)C(C)(C)NC(=O)[C@@H](N)Cc1c[nH]cn1)[C@@H](C)O)[C@@H](C)O)[C@@H](C)CC)[C@@H](C)CC)C(=O)N[C@@H](C)C(=O)N[C@@H](Cc1c[nH]cn1)C(=O)N[C@@H](CCCCN)C(=O)N[C@H](C(=O)N[C@H](C(=O)N[C@@H](CC(=O)O)C(=O)O)[C@@H](C)O)[C@@H](C)CC) [Compound 31] |
| 0.1 | 0.034 | H-H[Aib]EGSFTSELATILDEQAARDFIAWLYRHKITD-OH (SMILES CC[C@H](C)[C@H](NC(=O)[C@H](Cc1ccccc1)NC(=O)[C@H](CC(=O)O)NC(=O)[C@H](CCCNC(=N)N)NC(=O)[C@H](C)NC(=O)[C@H](C)NC(=O)[C@H](CCC(N)=O)NC(=O)[C@H](CCC(=O)O)NC(=O)[C@H](CC(=O)O)NC(=O)[C@H](CC(C)C)NC(=O)[C@@H](NC(=O)[C@@H](NC(=O)[C@H](C)NC(=O)[C@H](CC(C)C)NC(=O)[C@H](CCC(=O)O)NC(=O)[C@H](CO)NC(=O)[C@@H](NC(=O)[C@H](Cc1ccccc1)NC(=O)[C@H](CO)NC(=O)CNC(=O)[C@H](CCC(=O)O)NC(=O)C(C)(C)NC(=O)[C@@H](N)Cc1c[nH]cn1)[C@@H](C)O)[C@@H](C)O)[C@@H](C)CC)C(=O)N[C@@H](C)C(=O)N[C@@H](Cc1c[nH]c2ccccc12)C(=O)N[C@@H](CC(C)C)C(=O)N[C@@H](Cc1ccc(O)cc1)C(=O)N[C@@H](CCCNC(=N)N)C(=O)N[C@@H](Cc1c[nH]cn1)C(=O)N[C@@H](CCCCN)C(=O)N[C@H](C(=O)N[C@H](C(=O)N[C@@H](CC(=O)O)C(=O)O)[C@@H](C)O)[C@@H](C)CC) [Compound 30] |
| 0.038 | 0.15 | H-H[Aib]EGTFSSELATILDGKAARDFIAWLIAHKITD-OH (SMILES CC[C@H](C)[C@H](NC(=O)[C@H](CC(C)C)NC(=O)[C@H](Cc1c[nH]c2ccccc12)NC(=O)[C@H](C)NC(=O)[C@@H](NC(=O)[C@H](Cc1ccccc1)NC(=O)[C@H](CC(=O)O)NC(=O)[C@H](CCCNC(=N)N)NC(=O)[C@H](C)NC(=O)[C@H](C)NC(=O)[C@H](CCCCN)NC(=O)CNC(=O)[C@H](CC(=O)O)NC(=O)[C@H](CC(C)C)NC(=O)[C@@H](NC(=O)[C@@H](NC(=O)[C@H](C)NC(=O)[C@H](CC(C)C)NC(=O)[C@H](CCC(=O)O)NC(=O)[C@H](CO)NC(=O)[C@H](CO)NC(=O)[C@H](Cc1ccccc1)NC(=O)[C@@H](NC(=O)CNC(=O)[C@H](CCC(=O)O)NC(=O)C(C)(C)NC(=O)[C@@H](N)Cc1c[nH]cn1)[C@@H](C)O)[C@@H](C)O)[C@@H](C)CC)[C@@H](C)CC)C(=O)N[C@@H](C)C(=O)N[C@@H](Cc1c[nH]cn1)C(=O)N[C@@H](CCCCN)C(=O)N[C@H](C(=O)N[C@H](C(=O)N[C@@H](CC(=O)O)C(=O)O)[C@@H](C)O)[C@@H](C)CC) [Compound 32] |
